Assay results reported in paper PMC12106912 (International Journal of Nanomedicine, 2025).

Molecular target: Glypican-3 (GPC3), surface antigen of HepG2 cells (Homo sapiens (endogenous, HepG2), UniProt P51654)
Test: co-IP

Glypican-3 (GPC3), surface antigen of HepG2 cells, sequence (P51654 25-580): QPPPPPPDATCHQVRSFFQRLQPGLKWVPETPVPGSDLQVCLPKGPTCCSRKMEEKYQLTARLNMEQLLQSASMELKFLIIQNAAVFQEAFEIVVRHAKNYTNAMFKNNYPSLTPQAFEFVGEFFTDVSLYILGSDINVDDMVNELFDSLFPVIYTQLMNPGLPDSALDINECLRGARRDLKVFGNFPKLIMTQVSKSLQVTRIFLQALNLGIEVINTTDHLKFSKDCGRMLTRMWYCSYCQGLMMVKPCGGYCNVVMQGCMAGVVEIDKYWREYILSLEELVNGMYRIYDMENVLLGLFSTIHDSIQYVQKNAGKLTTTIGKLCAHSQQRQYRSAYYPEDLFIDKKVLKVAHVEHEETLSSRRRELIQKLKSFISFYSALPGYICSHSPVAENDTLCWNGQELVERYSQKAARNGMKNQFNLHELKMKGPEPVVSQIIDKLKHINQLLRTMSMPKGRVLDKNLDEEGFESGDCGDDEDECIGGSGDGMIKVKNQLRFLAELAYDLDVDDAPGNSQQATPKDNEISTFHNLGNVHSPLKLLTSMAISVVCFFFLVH

- binding result: binds
B1: Hbp-hGC33-scFv/Myc fusion protein displayed on the membrane surface of E. coli outer membrane vesicles (hGC33-OMVs) (scFv, V domains shown)
VH: QVQLVQSGAEVKKPGASVKVSCKASGYTFTDYEMHWVRQAPGQGLEWMGALDPKTGDTAYSQKFKGRVTLTADKSTSTAYMELSSLTSEDTAVYYCTRFYSYTYWGQGTLVTVSS
VL: DVVMTQSPLSLPVTPGEPASISCRSSQSLVHSNGNTYLHWYLQKPGQSPQLLIYKVSNRFSGVPDRFSGSGSGTDFTLKISRVEAEDVGVYYCSQNTHVPPTFGQGTKLEIK
